Experimental data taken from the supplement of paper PMC9112550, “Optimization of the antimicrobial peptide Bac7 by deep mutational scanning” (BMC Biology, 2022).
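Note: peptides expressed intracellularly from a pBAD plasmid library in pooled LB shake-flask culture, induced with 0.3% L-arabinose, DNA abundance read by NGS, three biological replicates, DESeq2 with apeglm shrinkage.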

What follows are sequences tested on Escherichia coli TOP10 (assay: shrunken log2 fold change of peptide-encoding DNA abundance (4.5 h post-induction vs induction); higher = less antimicrobial activity (less host growth inhibition)). Details: time post-induction: 4.5 h; library: site-saturation at positions 5, 18, 19, 20.
RRIRCRPPRLPRPRPRPNMIPRP was tested, and the “shrunken log2 fold change” value was -0.829.
In the case of RRIRSRPPRLPRPRPRPKNTPRP, the “shrunken log2 fold change” value is reported as -0.356.
For RRIRIRPPRLPRPRPRPGWFPRP, the “shrunken log2 fold change” value was -0.141.
For RRIRQRPPRLPRPRPRPIEHPRP, the “shrunken log2 fold change” value was 0.0215.
With RRIRFRPPRLPRPRPRPCDCPRP the “shrunken log2 fold change” value was -0.0184.
In the case of RRIRMRPPRLPRPRPRPNHMPRP, the “shrunken log2 fold change” value is reported as -0.01.
RRIRERPPRLPRPRPRPKPVPRP was tested, and the “shrunken log2 fold change” value was 0.173.
RRIRLRPPRLPRPRPRPKGTPRP was tested, and the “shrunken log2 fold change” value was 0.0017.
RRIRKRPPRLPRPRPRPKNCPRP was tested, and the “shrunken log2 fold change” value was 0.0646.
With RRIRDRPPRLPRPRPRPESAPRP the “shrunken log2 fold change” value was 0.345.
RRIRWRPPRLPRPRPRPAFSPRP was tested, and the “shrunken log2 fold change” value was 0.383.
RRIRWRPPRLPRPRPRPHNIPRP was tested, and the “shrunken log2 fold change” value was -0.691.
With RRIRNRPPRLPRPRPRPGYVPRP the “shrunken log2 fold change” value was -0.077.
For RRIRMRPPRLPRPRPRPCAVPRP, the “shrunken log2 fold change” value was 0.296.
For RRIRNRPPRLPRPRPRPPMEPRP, the “shrunken log2 fold change” value was -0.203.
In the case of RRIRFRPPRLPRPRPRPMKVPRP, the “shrunken log2 fold change” value is reported as -0.344.
With RRIRTRPPRLPRPRPRPSPKPRP the “shrunken log2 fold change” value was 2.46.
For RRIRCRPPRLPRPRPRPYTIPRP, the “shrunken log2 fold change” value was -0.342.
In the case of RRIRPRPPRLPRPRPRPWPFPRP, the “shrunken log2 fold change” value is reported as 0.108.
With RRIRRRPPRLPRPRPRPTRMPRP the “shrunken log2 fold change” value was 1.08.
In the case of RRIRNRPPRLPRPRPRPAACPRP, the “shrunken log2 fold change” value is reported as -0.0409.
RRIRPRPPRLPRPRPRPYKNPRP was tested, and the “shrunken log2 fold change” value was -0.775.
For RRIRTRPPRLPRPRPRPCFRPRP, the “shrunken log2 fold change” value was -0.0887.
In the case of RRIRTRPPRLPRPRPRPHREPRP, the “shrunken log2 fold change” value is reported as -0.075.
With RRIRFRPPRLPRPRPRPGDAPRP the “shrunken log2 fold change” value was 0.158.
RRIRYRPPRLPRPRPRPKKGPRP was tested, and the “shrunken log2 fold change” value was -0.444.
With RRIRWRPPRLPRPRPRPTTNPRP the “shrunken log2 fold change” value was 0.217.
RRIRARPPRLPRPRPRPWMHPRP was tested, and the “shrunken log2 fold change” value was 0.026.
With RRIRHRPPRLPRPRPRPCAGPRP the “shrunken log2 fold change” value was -0.195.
In the case of RRIRGRPPRLPRPRPRPWIRPRP, the “shrunken log2 fold change” value is reported as -0.164.
RRIRCRPPRLPRPRPRPPVIPRP was tested, and the “shrunken log2 fold change” value was -0.0627.
RRIRNRPPRLPRPRPRPFDEPRP was tested, and the “shrunken log2 fold change” value was -0.305.
RRIRLRPPRLPRPRPRPFMRPRP was tested, and the “shrunken log2 fold change” value was 0.495.
RRIRVRPPRLPRPRPRPMGKPRP was tested, and the “shrunken log2 fold change” value was -0.0406.
With RRIRNRPPRLPRPRPRPTHAPRP the “shrunken log2 fold change” value was 0.337.
For RRIRTRPPRLPRPRPRPNFWPRP, the “shrunken log2 fold change” value was 0.31.
For RRIRTRPPRLPRPRPRPSWLPRP, the “shrunken log2 fold change” value was 0.11.
In the case of RRIRVRPPRLPRPRPRPQAHPRP, the “shrunken log2 fold change” value is reported as -0.209.
RRIRRRPPRLPRPRPRPVETPRP was tested, and the “shrunken log2 fold change” value was 0.181.
With RRIRCRPPRLPRPRPRPMVPPRP the “shrunken log2 fold change” value was -0.354.
For RRIRIRPPRLPRPRPRPDMTPRP, the “shrunken log2 fold change” value was -0.01.
With RRIRWRPPRLPRPRPRPPGDPRP the “shrunken log2 fold change” value was 0.88.
With RRIRNRPPRLPRPRPRPVFFPRP the “shrunken log2 fold change” value was -0.223.
In the case of RRIRTRPPRLPRPRPRPMNIPRP, the “shrunken log2 fold change” value is reported as -0.259.
In the case of RRIRKRPPRLPRPRPRPIQIPRP, the “shrunken log2 fold change” value is reported as -0.14.
In the case of RRIRSRPPRLPRPRPRPYFKPRP, the “shrunken log2 fold change” value is reported as -0.857.
RRIRGRPPRLPRPRPRPSEHPRP was tested, and the “shrunken log2 fold change” value was 0.149.
In the case of RRIRKRPPRLPRPRPRPYVYPRP, the “shrunken log2 fold change” value is reported as -0.154.
In the case of RRIRWRPPRLPRPRPRPVQLPRP, the “shrunken log2 fold change” value is reported as 0.034.
With RRIRMRPPRLPRPRPRPFNQPRP the “shrunken log2 fold change” value was -0.0903.
For RRIRERPPRLPRPRPRPYPFPRP, the “shrunken log2 fold change” value was -0.52.
RRIRNRPPRLPRPRPRPMARPRP was tested, and the “shrunken log2 fold change” value was 0.0994.
With RRIRYRPPRLPRPRPRPGRYPRP the “shrunken log2 fold change” value was -0.912.
With RRIRQRPPRLPRPRPRPFHLPRP the “shrunken log2 fold change” value was -0.0558.
For RRIRVRPPRLPRPRPRPTNIPRP, the “shrunken log2 fold change” value was -0.783.
With RRIRVRPPRLPRPRPRPLTYPRP the “shrunken log2 fold change” value was -0.356.
RRIRERPPRLPRPRPRPIIYPRP was tested, and the “shrunken log2 fold change” value was -0.412.
RRIRVRPPRLPRPRPRPDHKPRP was tested, and the “shrunken log2 fold change” value was -0.0198.
With RRIRHRPPRLPRPRPRPNDPPRP the “shrunken log2 fold change” value was -0.246.
RRIRNRPPRLPRPRPRPLNKPRP was tested, and the “shrunken log2 fold change” value was -0.256.
In the case of RRIRTRPPRLPRPRPRPHHRPRP, the “shrunken log2 fold change” value is reported as -0.655.
In the case of RRIRIRPPRLPRPRPRPVVMPRP, the “shrunken log2 fold change” value is reported as -0.0043.
With RRIRYRPPRLPRPRPRPDATPRP the “shrunken log2 fold change” value was 0.104.
In the case of RRIRSRPPRLPRPRPRPADYPRP, the “shrunken log2 fold change” value is reported as -0.455.
With RRIRFRPPRLPRPRPRPPWMPRP the “shrunken log2 fold change” value was 0.355.
With RRIRRRPPRLPRPRPRPTMCPRP the “shrunken log2 fold change” value was 0.233.
For RRIRGRPPRLPRPRPRPPKSPRP, the “shrunken log2 fold change” value was 0.616.
RRIRQRPPRLPRPRPRPLFYPRP was tested, and the “shrunken log2 fold change” value was -0.251.
In the case of RRIRQRPPRLPRPRPRPREDPRP, the “shrunken log2 fold change” value is reported as 0.242.
For RRIRIRPPRLPRPRPRPCPNPRP, the “shrunken log2 fold change” value was -0.159.
RRIRPRPPRLPRPRPRPQVKPRP was tested, and the “shrunken log2 fold change” value was 0.205.
For RRIRHRPPRLPRPRPRPRKNPRP, the “shrunken log2 fold change” value was 0.00268.
In the case of RRIRYRPPRLPRPRPRPHPSPRP, the “shrunken log2 fold change” value is reported as 0.0761.
RRIRGRPPRLPRPRPRPAKMPRP was tested, and the “shrunken log2 fold change” value was 0.538.
For RRIRLRPPRLPRPRPRPEKAPRP, the “shrunken log2 fold change” value was 0.166.
